Where a chain is given by its changes, count along the chain named. No end group written: not given here.

One experiment deals with T1, αWD40 Arg300Ala mutant (Schizosaccharomyces pombe, UniProt Q96WV5, R300A).
T1 construct: strep-tag (C); made in house; host or cells: Expi293 cells
T1 sequence (Q96WV5 1-327 R300A limits assumed): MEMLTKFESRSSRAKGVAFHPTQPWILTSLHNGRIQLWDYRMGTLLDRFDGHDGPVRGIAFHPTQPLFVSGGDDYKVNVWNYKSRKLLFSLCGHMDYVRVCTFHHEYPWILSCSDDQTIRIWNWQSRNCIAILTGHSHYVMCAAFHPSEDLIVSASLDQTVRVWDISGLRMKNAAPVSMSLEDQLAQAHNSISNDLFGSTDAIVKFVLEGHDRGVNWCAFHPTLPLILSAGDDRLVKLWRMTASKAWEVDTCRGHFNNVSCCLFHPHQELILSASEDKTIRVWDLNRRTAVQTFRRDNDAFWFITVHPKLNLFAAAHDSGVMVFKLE
Nature of the experiment: biochemical. It is filed as binding, S. pombe. The conditions noted are these: pH 6.5.

For a further experiment, the target named is T2, β‘WD40 domain (β‘-COPI) (Saccharomyces cerevisiae, UniProt P41811).
T2 construct: strep-Hisx6-SUMO (N, cleaved yes); made in house; host or cells: E. coli BL21(DE3)pLysS
T2 sequence (P41811 1-304 limits assumed): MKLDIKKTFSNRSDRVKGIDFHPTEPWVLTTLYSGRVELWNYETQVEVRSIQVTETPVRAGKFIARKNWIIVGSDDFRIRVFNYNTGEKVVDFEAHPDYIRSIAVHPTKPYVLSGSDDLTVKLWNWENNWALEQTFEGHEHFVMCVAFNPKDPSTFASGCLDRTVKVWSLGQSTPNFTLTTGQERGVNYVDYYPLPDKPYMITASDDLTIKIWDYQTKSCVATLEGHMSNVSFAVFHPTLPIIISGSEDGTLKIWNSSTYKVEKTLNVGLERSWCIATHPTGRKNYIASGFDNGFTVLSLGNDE
Nature of the experiment: biochemical. It is filed as binding, S. cerevisiae. The conditions noted are these: pH 6.5.

A further experiment concerns the target T3, αWD40 Arg13Ala mutant (Schizosaccharomyces pombe, UniProt Q96WV5, R13A).
T3 construct: strep-tag (C); made in house; host or cells: Expi293 cells
T3 sequence (Q96WV5 1-327 R13A limits assumed): T1 sequence (Q96WV5 1-327 R300A limits assumed) with R13A, A300R
The experiment is described as follows: biochemical. The conditions noted are these: pH 6.5. It is filed as binding, S. pombe.

Experiment [1] addresses Thr1273Glu clientized S tail 21mer peptide (BLI) (SARS-CoV-2). Nature of the experiment: BLI; […]; pH 6.5 ([…]; 25 °C; Octet RED96; […]. (In general: Biolayer interferometry detects binding as a change in optical thickness at a sensor tip.)
Experiment [2] has as its target amidated clientized Thr1273Glu S heptapeptide (SARS-CoV-2). The experiment is described as follows: BLI; […]; pH 6.5 ([…]; 25 °C; Octet RED96; […].
Experiment [3] addresses Thr1273Glu clientized S tail 21mer peptide (BLI) (SARS-CoV-2). The experiment is described as follows: BLI; pH 7.
The target of experiment [4] is clientized GST-S tail fusion, Thr1273Asp (SARS-CoV-2). The experiment is described as follows: pull-down.
Experiment [5] concerns the target clientized GST-S tail fusion, Thr1273Glu (SARS-CoV-2). Nature of the experiment: pull-down.
Experiment [6] concerns the target wild-type SARS-CoV-2 S tail heptapeptide (1267Gly-Val-Lys-Leu-His-Tyr-Thr1273) (SARS-CoV-2). Nature of the experiment: BLI; […]; pH 6.5 ([…]; 25 °C; Octet RED96; […].
The target of experiment [7] is clientized Thr1273Glu SARS-CoV-2 S tail heptapeptide (1267Gly-Val-Lys-Leu-His-Tyr-Glu1273) (SARS-CoV-2). Nature of the experiment: BLI; […]; pH 6.5 ([…]; 25 °C; Octet RED96; […].
Experiment [8] deals with T4, S. cerevisiae β‘-COPI WD40 domain (β‘WD40), wild type (S. cerevisiae, UniProt P41811 1-301).
T4 sequence: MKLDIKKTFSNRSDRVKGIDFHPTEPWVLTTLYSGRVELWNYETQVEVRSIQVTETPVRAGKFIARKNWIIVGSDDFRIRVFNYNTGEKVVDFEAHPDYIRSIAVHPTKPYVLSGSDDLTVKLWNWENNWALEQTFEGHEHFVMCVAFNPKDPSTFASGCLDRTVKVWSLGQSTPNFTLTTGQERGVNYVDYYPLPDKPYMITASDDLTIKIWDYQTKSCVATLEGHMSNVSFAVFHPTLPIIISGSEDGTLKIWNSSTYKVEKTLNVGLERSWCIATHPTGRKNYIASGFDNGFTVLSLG
The experiment is described as follows: BLI; […]; pH 6.5 ([…]; 25 °C; Octet RED96; […]. The conditions noted are these: both partners purified.

Broadly, the koff is the first-order rate constant of dissociation. Low readings indicate a long-lived complex, high ones a short-lived complex. With GVKLHYE [GVKLHYE], the koff on αWD40 Arg300Ala mutant turned out to be 0.43 ± 0.003 s⁻¹; at β‘WD40 domain (β‘-COPI), 1.27 ± 0.03 s⁻¹; on αWD40 Arg13Ala mutant, 0.22 ± 0.008 s⁻¹.
Take GVKLHYT [GVKLHYT]: the koff on αWD40 Arg300Ala mutant amounted to 0.81 ± 0.007 s⁻¹; on αWD40 Arg13Ala mutant it was 0.38 ± 0.007 s⁻¹.
What is called Kd is a measure of binding affinity in units of concentration. Low readings indicate a tighter complex, high ones a looser complex. Consider “S. pombe α-COPI WD40 domain (αWD40), wild type (domain or fragment)”, for which the equilibrium dissociation constant (Kd) in [1] amounted to 0.1 µM; in experiment [2], 2.3 µM; in [3], 0.1 µM.
In experiment [4], “endogenous coatomer complex (mouse liver cytosol) (from UniProt Q8CIE6 1-1224; Q9JIF7 1-953; O55029 1-905; Q9QZE5 1-874; Q5XJY5 1-511; O89079 1-308; P61924 1-177)” returned a fold binding over the Lys-x-Lys-x-xCT dibasic mutant of 2 fold and a fold binding over the wild-type GST-S tail construct of 17 fold. In addition, in experiment [5], the fold binding over the Lys-x-Lys-x-xCT dibasic mutant worked out at 2 fold and the fold binding over the wild-type GST-S tail construct was found to be 17 fold.
A word on the kon: it is a measure of how fast the partners come together. With “αWD40 Arg13Ala mutant (domain or fragment)”, in experiment [6], the Kd is 8.5 µM, the koff was 0.38 s⁻¹ and the association rate constant (kon) was determined as 148000 M⁻¹ s⁻¹. In experiment [7], this molecule gave a Kd of 3 µM, a koff of 0.22 s⁻¹ and a kon of 132000 M⁻¹ s⁻¹.
As to “αWD40 Arg300Ala mutant (domain or fragment)”, in [6], the Kd came to 3.6 µM, the off-rate constant (koff) stood at 0.81 s⁻¹ and the kon was determined as 360000 M⁻¹ s⁻¹. Moreover, in [7], the Kd was determined as 4.2 µM, the koff was found to be 0.43 s⁻¹ and the kon stood at 137000 M⁻¹ s⁻¹.

B1: clientized Thr1273Glu SARS-CoV-2 S tail heptapeptide (1267Gly-Val-Lys-Leu-His-Tyr-Glu1273) (peptide)
peptide: GVKLHYE
notes: also called GVKLHYE; clientized S heptapeptide
In experiment [8], B1 came in with a Kd of 2.3 ± 0.23 µM, a dissociation rate constant (koff) of 1.27 s⁻¹ and a kon of 2.42e+06 M⁻¹ s⁻¹.

(Values after article PMC10724246 (Nature Communications, 2023).)
